Measurements reported in the supplement of paper PMC9112550, “Optimization of the antimicrobial peptide Bac7 by deep mutational scanning” (BMC Biology, 2022).

Test system: Escherichia coli TOP10
Assay: shrunken log2 fold change of peptide-encoding DNA abundance (4.5 h post-induction vs induction); higher = less antimicrobial activity (less host growth inhibition)
Details: time post-induction: 4.5 h; library: site-saturation at positions 5, 18, 19, 20
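Also: peptides expressed intracellularly from a pBAD plasmid library in pooled LB shake-flask culture, induced with 0.3% L-arabinose, DNA abundance read by NGS, three biological replicates, DESeq2 with apeglm shrinkage.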

Sequence	shrunken log2 fold change
RRIRLRPPRLPRPRPRPRNAPRP	-0.0271
RRIRGRPPRLPRPRPRPMTAPRP	0.692
RRIRKRPPRLPRPRPRPVNAPRP	0.025
RRIRQRPPRLPRPRPRPQFIPRP	-0.0627
RRIRTRPPRLPRPRPRPEAWPRP	0.178
RRIRWRPPRLPRPRPRPKHQPRP	0.195
RRIRGRPPRLPRPRPRPSLFPRP	0.442
RRIRPRPPRLPRPRPRPMYCPRP	-0.0366
RRIRPRPPRLPRPRPRPCHEPRP	-0.316
RRIRGRPPRLPRPRPRPCSYPRP	0.089
RRIRHRPPRLPRPRPRPNCLPRP	-0.0125
RRIRQRPPRLPRPRPRPWVRPRP	-0.112
RRIRGRPPRLPRPRPRPVAAPRP	1.73
RRIRNRPPRLPRPRPRPALVPRP	0.461
RRIRERPPRLPRPRPRPKMDPRP	-0.0491
RRIRRRPPRLPRPRPRPLRTPRP	1.41
RRIRYRPPRLPRPRPRPVIWPRP	-0.262
RRIRYRPPRLPRPRPRPEQDPRP	-0.0203
RRIRGRPPRLPRPRPRPHVHPRP	-0.332
RRIRDRPPRLPRPRPRPAYRPRP	-0.0687
RRIRCRPPRLPRPRPRPWYMPRP	-0.838
RRIRYRPPRLPRPRPRPVNPPRP	-0.0594
RRIRDRPPRLPRPRPRPVQYPRP	-0.0992
RRIRKRPPRLPRPRPRPIDVPRP	0.191
RRIRWRPPRLPRPRPRPWRIPRP	-0.604

Sequence	shrunken log2 fold change
RRIRTRPPRLPRPRPRPKRGPRP	0.175
RRIRYRPPRLPRPRPRPCENPRP	-0.215
RRIRFRPPRLPRPRPRPFAYPRP	0.0263
RRIRNRPPRLPRPRPRPPFNPRP	-0.299
RRIRHRPPRLPRPRPRPLYLPRP	-0.4
RRIRWRPPRLPRPRPRPRQCPRP	0.137
RRIRFRPPRLPRPRPRPEQRPRP	-0.0295
RRIRDRPPRLPRPRPRPKDEPRP	0.0229
RRIRPRPPRLPRPRPRPGCGPRP	0.514
RRIRGRPPRLPRPRPRPMEKPRP	0.0535
RRIRHRPPRLPRPRPRPPTVPRP	0.184
RRIRVRPPRLPRPRPRPQHKPRP	-0.483
RRIRRRPPRLPRPRPRPGQHPRP	-0.0579
RRIRLRPPRLPRPRPRPSFIPRP	-0.578
RRIRVRPPRLPRPRPRPNVLPRP	0.0178
RRIRWRPPRLPRPRPRPNWCPRP	-0.0188
RRIRGRPPRLPRPRPRPDAQPRP	2.38
RRIRMRPPRLPRPRPRPVEMPRP	-0.0685
RRIRDRPPRLPRPRPRPMTSPRP	-0.169
RRIRIRPPRLPRPRPRPWPTPRP	0.331
RRIRIRPPRLPRPRPRPKFCPRP	-0.639
RRIRTRPPRLPRPRPRPRSTPRP	0.377
RRIRTRPPRLPRPRPRPFYTPRP	-0.373
RRIRNRPPRLPRPRPRPQDMPRP	0.0124
RRIRKRPPRLPRPRPRPGVDPRP	0.824

Sequence	shrunken log2 fold change
RRIRVRPPRLPRPRPRPYHTPRP	-0.15
RRIRYRPPRLPRPRPRPDQDPRP	-0.0701
RRIRVRPPRLPRPRPRPPKSPRP	0.1
RRIRWRPPRLPRPRPRPELYPRP	0.541
RRIRRRPPRLPRPRPRPHLCPRP	0.189
RRIRKRPPRLPRPRPRPKPYPRP	0.307
RRIRARPPRLPRPRPRPEQGPRP	0.388
RRIRSRPPRLPRPRPRPERWPRP	1.14
RRIRVRPPRLPRPRPRPVIQPRP	-0.336
RRIRFRPPRLPRPRPRPWTVPRP	-0.0388
RRIRNRPPRLPRPRPRPLSAPRP	-0.097
RRIRTRPPRLPRPRPRPFNTPRP	-0.0686
RRIRNRPPRLPRPRPRPEMAPRP	0.321
RRIRERPPRLPRPRPRPLKVPRP	-0.0726
RRIRQRPPRLPRPRPRPGLLPRP	-0.0475
RRIRHRPPRLPRPRPRPYSHPRP	-0.129
RRIRCRPPRLPRPRPRPLPMPRP	0.074
RRIRDRPPRLPRPRPRPDEYPRP	0.436
RRIRHRPPRLPRPRPRPSYNPRP	-0.86
RRIRGRPPRLPRPRPRPVDMPRP	0.255
RRIRYRPPRLPRPRPRPVDKPRP	-0.00804
RRIRRRPPRLPRPRPRPPQYPRP	1.12
RRIRFRPPRLPRPRPRPTFLPRP	-0.452
RRIRLRPPRLPRPRPRPRAVPRP	0.821
RRIRNRPPRLPRPRPRPTQGPRP	0.331

Sequence	shrunken log2 fold change
RRIRWRPPRLPRPRPRPVDCPRP	0.00927
RRIRCRPPRLPRPRPRPCQVPRP	-0.342
RRIRFRPPRLPRPRPRPLNTPRP	-0.483
RRIRLRPPRLPRPRPRPGKFPRP	0.117
RRIRFRPPRLPRPRPRPYCRPRP	-0.256
RRIRMRPPRLPRPRPRPRKHPRP	0.826
RRIRTRPPRLPRPRPRPNNKPRP	-0.474
RRIRDRPPRLPRPRPRPMYQPRP	-0.075
RRIRPRPPRLPRPRPRPPIRPRP	0.41
RRIRARPPRLPRPRPRPPQQPRP	0.758
RRIRWRPPRLPRPRPRPQWSPRP	-0.0983
RRIRWRPPRLPRPRPRPSAGPRP	0.231
RRIRHRPPRLPRPRPRPRWNPRP	-0.065
RRIRMRPPRLPRPRPRPECRPRP	2.38
RRIRSRPPRLPRPRPRPYMDPRP	-0.326
RRIRYRPPRLPRPRPRPTPPPRP	0.421
RRIRGRPPRLPRPRPRPRQKPRP	1.43
RRIRIRPPRLPRPRPRPVFPPRP	-0.221
RRIRQRPPRLPRPRPRPNTCPRP	-1.35
RRIRWRPPRLPRPRPRPHLIPRP	0.172
RRIRPRPPRLPRPRPRPSEFPRP	-0.0966
RRIRKRPPRLPRPRPRPGHQPRP	-0.0847
RRIRIRPPRLPRPRPRPFSKPRP	-0.05
RRIRCRPPRLPRPRPRPGARPRP	0.394
RRIRHRPPRLPRPRPRPQGDPRP	0.0795

Sequence	shrunken log2 fold change
RRIRPRPPRLPRPRPRPCRVPRP	-0.309
RRIRNRPPRLPRPRPRPDSQPRP	-0.0699
RRIRFRPPRLPRPRPRPSFAPRP	-0.156
RRIRARPPRLPRPRPRPEVCPRP	1.25
RRIRARPPRLPRPRPRPWHFPRP	0.24
RRIRSRPPRLPRPRPRPRPMPRP	0.498
RRIRYRPPRLPRPRPRPHTDPRP	-0.368
RRIRCRPPRLPRPRPRPVHHPRP	-0.176
RRIRYRPPRLPRPRPRPECWPRP	0.192
RRIRVRPPRLPRPRPRPPLHPRP	0.128
RRIRNRPPRLPRPRPRPNPVPRP	-0.139
RRIRYRPPRLPRPRPRPHHYPRP	-1.79
RRIRWRPPRLPRPRPRPKLLPRP	0.336
RRIRVRPPRLPRPRPRPQASPRP	0.322
RRIRERPPRLPRPRPRPEREPRP	0.414
RRIRDRPPRLPRPRPRPAQYPRP	-0.0825
RRIRQRPPRLPRPRPRPRHIPRP	-0.319
RRIRKRPPRLPRPRPRPIETPRP	0.00938
RRIRARPPRLPRPRPRPFRDPRP	-0.169
RRIRVRPPRLPRPRPRPQRSPRP	-0.431
RRIRMRPPRLPRPRPRPWWDPRP	0.142
RRIRSRPPRLPRPRPRPRNTPRP	-0.411
RRIRIRPPRLPRPRPRPGIVPRP	-0.399
RRIRERPPRLPRPRPRPAISPRP	-0.691
RRIRRRPPRLPRPRPRPGTGPRP	0.21

Sequence	shrunken log2 fold change
RRIRARPPRLPRPRPRPSDFPRP	0.0983
RRIRCRPPRLPRPRPRPKMAPRP	0.0796
RRIRTRPPRLPRPRPRPTIPPRP	-0.198
RRIRVRPPRLPRPRPRPQESPRP	-0.0491
RRIRCRPPRLPRPRPRPRQEPRP	0.121
RRIRSRPPRLPRPRPRPRNQPRP	0.205
RRIRDRPPRLPRPRPRPWFMPRP	0.0254
RRIRKRPPRLPRPRPRPTQGPRP	0.909
RRIRCRPPRLPRPRPRPYKHPRP	-1.04
RRIRERPPRLPRPRPRPATRPRP	0.102
RRIRNRPPRLPRPRPRPGSEPRP	-0.24
RRIRKRPPRLPRPRPRPTMSPRP	0.22
RRIRCRPPRLPRPRPRPDEFPRP	-0.169
RRIRCRPPRLPRPRPRPPQFPRP	0.695
RRIRNRPPRLPRPRPRPMKWPRP	0.0456
RRIRLRPPRLPRPRPRPVNPPRP	0.0818
RRIRKRPPRLPRPRPRPAPSPRP	0.748
RRIRHRPPRLPRPRPRPYNIPRP	-0.244
RRIRTRPPRLPRPRPRPYVRPRP	0.0143
RRIRERPPRLPRPRPRPINTPRP	-0.351
RRIRPRPPRLPRPRPRPLYKPRP	-0.247
RRIRHRPPRLPRPRPRPRWYPRP	-0.137
RRIRIRPPRLPRPRPRPCQQPRP	-0.0169
RRIRIRPPRLPRPRPRPFCPPRP	-0.463
RRIRGRPPRLPRPRPRPQTFPRP	0.762
